According to patent US7498127 (dated 2009):

Tests used:
[1] = molecular target: T1, GST binding HB-EGF remaining fragment (UniProt P08515 1-218 = GST; Q99075 185-208); assay: GST pull-down, same method as Test Example 1
T1 construct: also called remaining fragments of HB-EGF

[2] = molecular target: T1, GST binding HB-EGF remaining fragment; assay: GST pull-down, anti-FLAG immunoblot
Protocol: Test Method (1) In order to specify a region of PLZF protein that interacts with a remaining fragment, GST pull-down assay was performed.
(2) GST, GST binding HB-LGF remaining fragments that were expressed and isolated with *E. coli* BL21 strain according to the GST pull-down assay standard protocol were used. The fragments were bound to Glutathione Sepharose beads, and then cell lysates containing various FLAG-tagged PLZF protein derivatives were incubated with 20 µl of the beads at 4° C. for two hours. After washing with water, the bound protein was analyzed by immunoblotting using anti-FLAG antibody (referring to the peptide sold under the trademark FLAG by Sigma Aldrich Co.).

T1 sequence (P08515 1-218, tags or fused parts left off): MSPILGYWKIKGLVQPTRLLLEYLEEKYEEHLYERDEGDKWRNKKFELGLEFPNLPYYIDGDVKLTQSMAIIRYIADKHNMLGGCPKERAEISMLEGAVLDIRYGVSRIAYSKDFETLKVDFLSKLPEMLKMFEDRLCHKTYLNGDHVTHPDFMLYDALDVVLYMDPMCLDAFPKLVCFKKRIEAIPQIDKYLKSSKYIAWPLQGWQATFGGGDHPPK

| binding result [1] | binding result [2] | Binder |
| --- | --- | --- |
| no binding |  | Bcl-6 protein derivative consisting only of a region of Zn1 to Zn4 (other, UniProt P41182 518-624, looked up, not shown: small tags and cut ends, domain: Zn1 to Zn4; also called Bcl-6 protein derivative 8)) FFCNECDCRFSEEASLKRHTLQTHSDKPYKCDRCQASFRYKGNLASHKTVHTGEKPYRCNICGAQFNRPANLKTHTRIHSGEKPYKCETCGARFVQVAHLRAHVLIH |
|  | no binding | PLZF protein derivative consisting only of a region of Zn6 to Zn7 (other, UniProt Q05516 546-596, looked up, domain: Zn6 to Zn7; also called FLAG-tagged PLZF protein derivative 7); not shown: FLAG synthetic octapeptide tag (Sigma-Aldrich)) YECEFCGSCFRDESTLKSHKRIHTGEKPYECNGCGKKFSLKHQLETHYRVH |
|  | no binding | PLZF protein derivative consisting only of the BTB region (other, UniProt Q05516 1-132, looked up, domain: BTB region; also called FLAG-tagged PLZF protein derivative 6); not shown: FLAG synthetic octapeptide tag (Sigma-Aldrich)) MDLTKMGMIQLQNPSHPTGLLCKANQMRLAGTLCDVVIMVDSQEFHAHRTVLACTSKMFEILFHRNSQHYTLDFLSPKTFQQILEYAYTATLQAKAEDLDDLLYAAEILEIEYLEEQCLKMLETIQASDDND |
